The target of assay [1] is HLA-A2.01 molecule at the surface of T2 cells. The assay is described as follows: T2 cells loaded overnight; residual surface complexes by indirect immunofluorescence and FACS at 0, 2, 4 and 5 h.
For assay [2], the target named is soluble HLA-A2.01 molecules. The assay can be described thus: competition with 125I-F10V for HLA-A2.01, ratio peptide/125I-F10V 10/1.
Assay [3] has as its target soluble HLA-A2.01 molecules. The assay is described as follows: competition with 125I-F10V for HLA-A2.01, ratio peptide/125I-F10V 25/1.
Assay [4] has as its target HLA-A2.01 molecule at the surface of T2 cells. The assay is described as follows: T2 cell HLA-A2.01 stabilization; concentration ratio against the reference peptide for 20% of maximal stabilized molecules.
For assay [5] the target is unchanged.

Read-outs that look alike come from different tables or passages of the source. Non-standard residues stand in square brackets, D forms with d. No end group written: not given here. Abu = CC[C@H](N)C(=O)O Some results are limits rather than exact numbers.

YIAECILGM (modifications not checked) [Y9M] yielded a DC50 (half-life of the peptide-HLA-A2.1 complex) in assay [1] of less than 2 h.

In the case of RIAE[Abu]ILGM [R9M-5α-but], the percentage inhibition of the binding of 125I-F10V, ratio 10/1 in assay [2] worked out at 27%. For the same molecule, the percentage inhibition of the binding of 125I-F10V, ratio 25/1 in assay [3] came to 49%. This molecule also displayed a DC50 (half-life of the peptide-HLA-A2.1 complex) in assay [1] of 2 h. The RA in assay [4] worked out at 2.

PIGRIAECI (modifications not checked) [P9I] yielded a DC50 (half-life of the peptide-HLA-A2.1 complex) in assay [1] of 0 h.

Take RIAEAILGM (modifications not checked) [R9M-5A]: in assay [2], the percentage inhibition of the binding of 125I-F10V, ratio 10/1 came out at 59%. For the same molecule, the percentage inhibition of the binding of 125I-F10V, ratio 25/1 in assay [3] amounted to 72%. For the same molecule, the DC50 (half-life of the peptide-HLA-A2.1 complex) in assay [1] was less than 2 h. Further, the RA in assay [4] was found to be 3.2.

In the case of YIAESILGM (modifications not checked) [Y9M-5S], the percentage inhibition of the binding of 125I-F10V, ratio 10/1 in assay [2] was 25%. Moreover, the percentage inhibition of the binding of 125I-F10V, ratio 25/1 in assay [3] is 37%. For the same molecule, the RA in assay [4] was determined as 1.4.

YMPIGRIAE (modifications not checked) [Y9E]: the DC50 (half-life of the peptide-HLA-A2.1 complex) in assay [1] worked out at 0 h.

Consider YIAEAILGM (modifications not checked) [Y9M-5A], for which the percentage inhibition of the binding of 125I-F10V, ratio 10/1 in assay [2] is 79%. The percentage inhibition of the binding of 125I-F10V, ratio 25/1 in assay [3] came out at 87%. Also, the RA in assay [4] turned out to be 0.9.

Turning to RIAESILGM (modifications not checked) [R9M-5S], in assay [5], the DC50 (half-life of the peptide-HLA-A2.1 complex) was determined as 2 h and the RA amounted to 2.2. Also, the percentage inhibition of the binding of 125I-F10V, ratio 10/1 in assay [2] stood at 74%. Further, the percentage inhibition of the binding of 125I-F10V, ratio 25/1 in assay [3] stood at 75%.

As for YIAE[Abu]ILGM [Y9M-5α-but], in assay [2], the percentage inhibition of the binding of 125I-F10V, ratio 10/1 was 26%. Moreover, in assay [3], the percentage inhibition of the binding of 125I-F10V, ratio 25/1 came to 26%. The RA in assay [4] was found to be 0.7.

For RIAECILGM (modifications not checked) [wildtype R9M peptide], in assay [2], the percentage inhibition of the binding of 125I-F10V, ratio 10/1 came out at 64%. The percentage inhibition of the binding of 125I-F10V, ratio 25/1 in assay [3] is 69%. In addition, in assay [1], the DC50 (half-life of the peptide-HLA-A2.1 complex) is less than 2 h. Moreover, the RA in assay [4] worked out at 2.9.

With YIGRIAECI (modifications not checked) [Y9I], the DC50 (half-life of the peptide-HLA-A2.1 complex) in assay [1] is less than 2 h.

With AMPIGRIAE (modifications not checked) [A9E], the percentage inhibition of the binding of 125I-F10V, ratio 10/1 in assay [2] came out at 47%. Moreover, the percentage inhibition of the binding of 125I-F10V, ratio 25/1 in assay [3] came to 57%.

The record behind these values is patent US20040018205A1.
